Measurements reported in US20250115669A1, “FGFR1/KLB Targeting Agonistic Antigen-Binding Proteins and Conjugates Thereof with GLP-1R Agonistic Peptides” (SANOFI, priority 2020, published 2025).
Where two headings read alike, the source gives them in different places.

What was measured:
[1] = Capillary gel electrophoresis (cGE); format: physicochemical
Experimental: Capillary Gel Electrophoresis (cGE) Purity and size heterogeneity of the samples was determined by capillary gel electrophoresis (cGE) using a CES18000 instrument (SCIEX) equipped with a pre-assembled fused silica capillary (50 μm×300 mm, SCIEX). Protein samples at 1 mg/ml were prepared using the IgG purity heterogeneity Kit (SCIEX) under non-reducing conditions according to the manufacturer's specifications. Samples were electrophoretically separated for 35 minutes at 25° C. and the absorbance at 220 nm was recorded by a photo diode array (PDA) detector. The data were analyzed using 32 Karat Software (SCIEX).

[2] = biological target: T1, human beta-Klotho (Homo sapiens, UniProt Q86Z14); experiment: SPR binding affinity and kinetics to human beta-Klotho (Biacore 8K, anti-human Fc capture)
T1 sequence (Q86Z14 1-1044): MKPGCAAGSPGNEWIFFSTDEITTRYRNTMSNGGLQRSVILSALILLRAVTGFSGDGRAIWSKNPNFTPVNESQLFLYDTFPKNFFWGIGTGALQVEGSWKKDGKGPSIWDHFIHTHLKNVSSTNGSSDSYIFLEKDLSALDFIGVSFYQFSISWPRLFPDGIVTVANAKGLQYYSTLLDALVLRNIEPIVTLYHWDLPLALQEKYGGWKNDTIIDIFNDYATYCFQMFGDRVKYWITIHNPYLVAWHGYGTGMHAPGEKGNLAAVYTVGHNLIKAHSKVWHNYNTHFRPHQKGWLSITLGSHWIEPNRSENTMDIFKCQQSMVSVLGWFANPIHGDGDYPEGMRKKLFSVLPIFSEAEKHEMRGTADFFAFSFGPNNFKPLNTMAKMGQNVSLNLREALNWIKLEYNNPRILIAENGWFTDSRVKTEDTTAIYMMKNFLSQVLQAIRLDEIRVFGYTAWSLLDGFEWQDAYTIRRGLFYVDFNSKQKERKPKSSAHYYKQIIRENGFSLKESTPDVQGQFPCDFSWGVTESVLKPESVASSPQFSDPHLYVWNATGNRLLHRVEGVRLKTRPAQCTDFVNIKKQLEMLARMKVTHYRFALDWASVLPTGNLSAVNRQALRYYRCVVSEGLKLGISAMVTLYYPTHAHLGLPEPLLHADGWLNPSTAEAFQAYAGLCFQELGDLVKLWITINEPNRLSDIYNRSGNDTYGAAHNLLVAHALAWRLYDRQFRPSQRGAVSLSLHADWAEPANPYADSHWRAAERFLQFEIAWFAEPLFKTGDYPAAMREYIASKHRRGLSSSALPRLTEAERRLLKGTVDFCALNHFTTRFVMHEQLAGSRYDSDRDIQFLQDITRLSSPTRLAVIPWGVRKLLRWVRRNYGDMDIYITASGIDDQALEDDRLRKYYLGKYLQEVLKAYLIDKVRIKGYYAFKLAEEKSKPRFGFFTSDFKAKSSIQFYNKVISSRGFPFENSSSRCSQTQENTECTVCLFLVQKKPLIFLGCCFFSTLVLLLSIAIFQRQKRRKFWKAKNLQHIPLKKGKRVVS
Experimental: Binding affinity and kinetics were measured on a Biacore 8K instrument (GE Healthcare). For the affinity capture of the diluted mAb sample, an anti-human Fc antibody (human antibody capture kit, GE Healthcare) was immobilized on all eight channels of a series S CM5 sensor chip (GE Healthcare) to approximately 10.000 RU. The anti-beta-Klotho antibodies were diluted into HBS-EP+ assay buffer (GE Healthcare) to 0.04 μg/mL. The antibodies were injected in the sample compartment, whereas the reference compartment was used without captured antibody. […] For the antigen inject the flow rate was adjusted to 60 μL/min with an association time of 180 sec and a dissociation time of 1800 sec. The maximum binding signal of beta-Klotho was in the range of 30 RU. At the end of each cycle an inject of regeneration solution, supplied with human antibody capture kit (GE Healthcare), supplemented with 10% non-specific binding reducer (GE Healthcare), for 1 min at 30 μL/min to remove antibody and antigen was performed. Binding kinetics data were evaluated with a 1:1 binding model using the Biacore 8K Evaluation Software version 1.1.1.7442 (GE Healthcare).
For interaction analysis with human beta-klotho, mAbs were captured via an anti-human Fc antibody immobilized on a series S CM5 sensor chip (human antibody capture kit, GE Healthcare). […] Binding kinetics data were evaluated with a 1:1 binding model using the Biacore 8K Evaluation Software version 1.1.1.7442 (GE Healthcare). For interaction analysis with Cynomolgus monkey beta-klotho, mAbs were captured via an anti-human Fc antibody immobilized on a series S CM5 sensor chip (human antibody capture kit, GE Healthcare). […] Binding kinetics data were evaluated with a 1:1 binding model using the Biacore 8K Evaluation Software version 1.1.1.7442 (GE Healthcare). Exemplary sensorgrams for the interaction are shown in FIG. 7 (human KLB) and 8 (monkey KLB), as well as in Table G.

[3] = Size-exclusion chromatography (SEC); format: physicochemical
Experimental: Analytical SEC was performed using a BioSECcurity instrument (PSS Polymer) with an AdvanceBio 300 column (4.6 mm×300 mm) and AdvanceBio 300 guard column (Agilent Technologies) at room temperature. The analysis was run at a flow rate of 0.5 mL/min using 2× concentrated D-PBS buffer (Thermo Fisher Scientific) with detection at 280 nm. 10 μL of protein sample (at 1 mg/mL) were applied onto the column. Data evaluation was performed using WinGPC software v8.1 (PSS Polymer). For estimation of the molecular weight, the SEC column was calibrated with the AdvanceBio SEC 300 Å Protein Standard (Agilent Technologies).

[4] = Capillary isoelectric focusing (cIEF); format: physicochemical
Experimental: Charge heterogeneity of the antibody samples was determined by capillary isoelectric focusing (cIEF) using a Maurice C device (Protein Simple). The samples were prepared by the cIEF protocol given by the manufacturer with an ampholyte mix 3-10 (Protein Simple) and peptide pl markers of 5.85 and 9.0 (Protein Simple). cIEF runs were analyzed using Compass Software v2.1.0 (Protein Simple).

[5] = SPR, 1:1 binding model, read-out: KD human KLB

Substance | Homogeneity cGE % Monomer [1] [%] | Kd [2, 5] [nM] | Kd ([2]; read-out: Affinity SPR KD) [nM] | SEC % HMW ([3]; pH 5, 40° C., d 21) [%] | SEC % LMW ([3]; pH 5, 40° C., d 21) [%] | SEC % HMW ([3]; pH 5, d 0) [%] | SEC % LMW ([3]; pH 5, d 0) [%] | SEC % HMW ([3]; pH 6, 40° C., d 21) [%] | SEC % LMW ([3]; pH 6, 40° C., d 21) [%] | SEC % HMW ([3]; pH 6, d 0) [%] | SEC % LMW ([3]; pH 6, d 0) [%] | SEC % HMW ([3]; pH 8, 40° C., d 21) [%] | SEC % LMW ([3]; pH 8, 40° C., d 21) [%] | SEC % HMW ([3]; pH 8, d 0) [%] | SEC % LMW ([3]; pH 8, d 0) [%] | Charge homogeneity cIEF % main peak [4] [%] | Charge homogeneity cIEF Number of peaks [4] | Charge homogeneity cIEF pI [4] | cIEF % Main peak ([4]; pH 5, 40° C., d 21) [%] | cIEF Number of peaks ([4]; pH 5, 40° C., d 21) | further results
Ab0428: IgG1 NNAS; 16H7 VL (N25S, D49S, D50E, D91E, N93E); 16H7 VH (M34V, I83T, D109E); HC SEQ ID NO: 41, LC SEQ ID NO: 48 | 71 | 0.205 | 0.21 | 1 | 2 | 2 | 0 | 0 | 2 | 1 | 0 | 1 | 3 | 1 | 0 | 20.4 | 8 | 7.3-8.0 | 15 | 8 | cIEF % Main peak ([4]; pH 5, d 0): 21%; cIEF Number of peaks ([4]; pH 5, d 0): 8; cIEF % Main peak ([4]; pH 6, 40° C., d 21): 21%; cIEF Number of peaks ([4]; pH 6, 40° C., d 21): 8; cIEF % Main peak ([4]; pH 6, d 0): 20%; cIEF Number of peaks ([4]; pH 6, d 0): 8; cIEF % Main peak ([4]; pH 8, 40° C., d 21): 11%; cIEF Number of peaks ([4]; pH 8, 40° C., d 21): 9; cIEF % Main peak ([4]; pH 8, d 0): 21%; cIEF Number of peaks ([4]; pH 8, d 0): 9
Ab0429: IgG1 NNAS; 16H7 VL (N25S, D49S, D50A, D91E, N93E); 16H7 VH (M34V, I83T, D109E); HC SEQ ID NO: 42, LC SEQ ID NO: 49 | 66 | 0.186 | 0.19 | 1 | 2 | 2 | 0 | 0 | 1 | 0 | 0 | 1 | 3 | 2 | 0 | 21.3 | 9 | 7.5-8.5 | 20 | 9 | cIEF % Main peak ([4]; pH 5, d 0): 21%; cIEF Number of peaks ([4]; pH 5, d 0): 8; cIEF % Main peak ([4]; pH 6, 40° C., d 21): 23%; cIEF Number of peaks ([4]; pH 6, 40° C., d 21): 8; cIEF % Main peak ([4]; pH 6, d 0): 21%; cIEF Number of peaks ([4]; pH 6, d 0): 9; cIEF % Main peak ([4]; pH 8, 40° C., d 21): 9.7%; cIEF Number of peaks ([4]; pH 8, 40° C., d 21): 10; cIEF % Main peak ([4]; pH 8, d 0): 21%; cIEF Number of peaks ([4]; pH 8, d 0): 8
Ab0430: IgG1 NNAS; 16H7 VL (N25S, D49E, D50E, D91E, N93E); 16H7 VH (M34V, I83T, D109E); HC SEQ ID NO: 43, LC SEQ ID NO: 50 | 62 | 0.286 | 0.29 | 1 | 2 | 1 | 0 | 0 | 2 | 1 | 0 | 1 | 4 | 2 | 0 | 21.7 | 8 | 7.2-7.9 | 21 | 8 | cIEF % Main peak ([4]; pH 5, d 0): 22%; cIEF Number of peaks ([4]; pH 5, d 0): 9; cIEF % Main peak ([4]; pH 6, 40° C., d 21): 20%; cIEF Number of peaks ([4]; pH 6, 40° C., d 21): 9; cIEF % Main peak ([4]; pH 6, d 0): 22%; cIEF Number of peaks ([4]; pH 6, d 0): 8; cIEF % Main peak ([4]; pH 8, 40° C., d 21): 4.4%; cIEF Number of peaks ([4]; pH 8, 40° C., d 21): 11; cIEF % Main peak ([4]; pH 8, d 0): 22%; cIEF Number of peaks ([4]; pH 8, d 0): 9
